According to patent publication US20170240635A1 (AGENCY FOR SCIENCE TECHNOLOGY AND RESEARCH, published 2017):
Substitutions are numbered along the chain they refer to.

T1: hICOS-Fc (human, UniProt Q9Y6W8)
T1 construct: also called human ICOS
T1 sequence (antigen, looked up): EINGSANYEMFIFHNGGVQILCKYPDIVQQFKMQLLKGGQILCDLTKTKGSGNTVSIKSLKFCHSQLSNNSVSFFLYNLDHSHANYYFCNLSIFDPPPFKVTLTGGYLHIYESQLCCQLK

T2: human LAG-3 coupled to human Fc (human, UniProt P18627 23-450, limits assumed)
T2 construct: ELISA coating antigen; not shown: human Fc
T2 sequence (looked up): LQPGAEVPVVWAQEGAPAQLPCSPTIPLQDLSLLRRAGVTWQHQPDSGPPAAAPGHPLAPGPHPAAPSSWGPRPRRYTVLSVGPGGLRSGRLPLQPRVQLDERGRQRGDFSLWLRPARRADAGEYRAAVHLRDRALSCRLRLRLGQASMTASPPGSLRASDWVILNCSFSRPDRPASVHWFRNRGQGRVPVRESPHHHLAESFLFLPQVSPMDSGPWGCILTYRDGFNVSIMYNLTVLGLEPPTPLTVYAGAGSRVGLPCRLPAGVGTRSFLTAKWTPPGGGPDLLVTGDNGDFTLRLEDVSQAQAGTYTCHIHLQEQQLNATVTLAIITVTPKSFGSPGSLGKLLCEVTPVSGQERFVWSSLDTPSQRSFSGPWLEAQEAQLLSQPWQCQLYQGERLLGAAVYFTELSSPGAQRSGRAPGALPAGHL

B1: anti-PD-1 antibody clone B6 (Fab) (Fab, V domains shown)
VH: QVQLVESGGGVVQPGRSLRLSCAASGFTFSSYGMHWVRQAPGKGLEWVAVISYDGSNKYYADSVKGRFTISRDNSKNTLYLQMNSLRAEDTAVYYCASDYGAGPYYYGMDVWGQGTTVTVSS
VL: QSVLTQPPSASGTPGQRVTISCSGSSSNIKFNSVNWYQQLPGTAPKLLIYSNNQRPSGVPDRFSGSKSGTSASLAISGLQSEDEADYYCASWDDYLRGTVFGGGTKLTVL
notes: Crude Fab extract in SPR
B2: anti-PD-1 antibody clone F2 (Fab) (Fab, V domains shown)
VH: B1 VH with Y100L
VL: QSVLTQPPSASGTPGQRVTISCSGSSSNIKFNSVNWYQQLPGTAPKLLIYSNNQRPSGVPDRFSGSKSGTSASLAISGLQSEDEADYYCSSWDDDARGTIFGGGTKLTVL
notes: Crude Fab extract in SPR
B3: anti-PD-1 antibody clone G1 (Fab) (Fab, V domains shown)
VH: B1 VH with Y100L
VL: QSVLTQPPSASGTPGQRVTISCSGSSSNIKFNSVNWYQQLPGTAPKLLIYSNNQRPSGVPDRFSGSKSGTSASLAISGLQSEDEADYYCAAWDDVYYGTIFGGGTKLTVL
notes: Crude Fab extract in SPR
B4: anti-PD-1 antibody clone C4 (Fab) (Fab, V domains shown)
VH: B1 VH with Y100L, M109L
VL: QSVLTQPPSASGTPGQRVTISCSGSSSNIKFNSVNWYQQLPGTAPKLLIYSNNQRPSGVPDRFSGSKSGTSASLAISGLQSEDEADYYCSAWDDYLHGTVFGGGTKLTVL
notes: Crude Fab extract in SPR
B5: anti-PD-1 antibody clone D4 (Fab) (Fab, V domains shown)
VH: B1 VH with Y100L
VL: B2 VL with S90A, D95Y, A96V, I100M
notes: Crude Fab extract in SPR
B6: anti-PD-1 antibody clone H4 (Fab) (Fab, V domains shown)
VH: B1 VH with Y100L, A102S, P104Y, Y106L
VL: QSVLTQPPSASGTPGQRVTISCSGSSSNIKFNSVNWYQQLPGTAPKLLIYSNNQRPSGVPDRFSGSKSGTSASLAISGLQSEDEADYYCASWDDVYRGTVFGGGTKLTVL
notes: Crude Fab extract in SPR

Molecular target: T3, human PD-1 coupled to human Fc (human, UniProt Q15116 25-167, limits assumed)
T3 construct: also called human-PD-1 coupled to Fc; not shown: human Fc
Assay: SPR (ProteOn XPR36); human PD-1-Fc immobilised, crude Fab extract flown over
Experimental: Briefly, human or mouse PD-1 coupled to human Fc was immobilised on a sensor chip compatible with the Proteon XPR36 bioanalyser (Biorad). Crude Fab extracts (or the control antibodies) were then flown onto the chip and the association/dissociation of each candidate Fab was then recorded and analysed, the affinity (KD) was calculated.

T3 sequence (Q15116 25-167 limits assumed): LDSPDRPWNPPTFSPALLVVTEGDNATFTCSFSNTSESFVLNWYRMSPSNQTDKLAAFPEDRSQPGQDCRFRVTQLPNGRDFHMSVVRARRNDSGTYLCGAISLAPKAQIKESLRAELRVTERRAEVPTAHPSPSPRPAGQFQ

| Kd [nM] | Binder |
| --- | --- |
| 0.26 | B1 |
| 0.11 | B2 |
| 0.1 | B3 |
| 0.4 | B4 |
| 0.22 | B5 |
| 0.27 | B6 |

Molecular target: T4, hCTLA4-Fc (human, UniProt P16410)
T4 construct: also called human CTLA-4; human CTLA4
Assay: ELISA; antigen coated 350 ng/well, goat anti-human Fab-HRP, absorbance 450-670 nm
Experimental: (§1) Anti-PD-1 antibodies were tested in an ELISA assay for their ability to bind to other members of the CD28 family.
(§2) Briefly, ELISA plates were coated with 350 ng/well of one of the following antigens coupled to human Fc in carbonate buffer: human PD-1, human PD-L1, human TIM-3, human LAG-3, human ICOS, human CTLA4, human BTLA, human CD28, mouse TIM-3, or rhesus PD-1. The plate was then blocked with a solution of casein. After extensive washes in PBS Tween-20, antibodies were added into the ELISA wells in the presence of 7% milk in PBS. After 90 minutes at room temperature under agitation and extensive washes, a goat anti-human Fab antibody coupled to HRP was added. One hour later, plates were washed and TMB substrate added. The reaction was stopped with 1M HCl and optical density measured at 450 nm with a reference at 670 nm.

T4 sequence (P16410 37-162 limits assumed): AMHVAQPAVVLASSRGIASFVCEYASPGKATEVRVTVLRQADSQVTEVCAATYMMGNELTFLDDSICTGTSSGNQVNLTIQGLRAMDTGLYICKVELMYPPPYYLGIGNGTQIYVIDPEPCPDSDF

| binding result | Binder |
| --- | --- |
| no binding (tested: not given) | B2 |
| no binding (tested: not given) | B3 |
| no binding (tested: not given) | B6 |

Molecular target: T1, hICOS-Fc
Assay: as above
Experimental: as §1, §2

| binding result | Binder |
| --- | --- |
| no binding (tested: not given) | B1 |
| no binding (tested: not given) | B2 |
| no binding (tested: not given) | B3 |
| no binding (tested: not given) | B4 |
| no binding (tested: not given) | B5 |
| no binding (tested: not given) | B6 |

Molecular target: T5, mTim3-Fc (mouse, UniProt Q8VIM0)
T5 construct: also called mouse TIM-3
Assay: as above
Experimental: as §1, §2

T5 sequence (Q8VIM0 20-191 limits assumed): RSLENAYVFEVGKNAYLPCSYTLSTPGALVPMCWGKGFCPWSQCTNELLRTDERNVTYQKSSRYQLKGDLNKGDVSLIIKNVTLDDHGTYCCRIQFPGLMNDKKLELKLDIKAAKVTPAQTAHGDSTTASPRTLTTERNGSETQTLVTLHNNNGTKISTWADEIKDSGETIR

| binding result | Binder |
| --- | --- |
| no binding (tested: not given) | B1 |
| no binding (tested: not given) | B2 |
| no binding (tested: not given) | B3 |
| no binding (tested: not given) | B4 |
| no binding (tested: not given) | B5 |
| no binding (tested: not given) | B6 |

Molecular target: T6, human PD-L1 coupled to human Fc (human, UniProt Q9NZQ7 19-239, limits assumed)
T6 construct: ELISA coating antigen; not shown: human Fc
Assay: as above
Experimental: as §1, §2

T6 sequence (Q9NZQ7 19-239 limits assumed): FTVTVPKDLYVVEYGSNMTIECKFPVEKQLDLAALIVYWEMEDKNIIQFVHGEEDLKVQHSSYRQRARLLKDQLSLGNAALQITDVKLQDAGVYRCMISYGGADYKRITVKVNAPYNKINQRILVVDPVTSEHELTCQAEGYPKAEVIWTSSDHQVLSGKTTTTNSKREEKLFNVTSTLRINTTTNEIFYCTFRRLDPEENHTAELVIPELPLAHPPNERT

| binding result | Binder |
| --- | --- |
| no binding (tested: not given) | B1 |
| no binding (tested: not given) | B2 |
| no binding (tested: not given) | B3 |
| no binding (tested: not given) | B4 |
| no binding (tested: not given) | B5 |
| no binding (tested: not given) | B6 |

Molecular target: T7, human TIM-3 coupled to human Fc (human, UniProt Q8TDQ0 22-200, limits assumed)
T7 construct: not shown: human Fc
Assay: as above
Experimental: as §1, §2

| binding result | Binder |
| --- | --- |
| no binding (tested: not given) | B1 |
| no binding (tested: not given) | B2 |
| no binding (tested: not given) | B3 |
| no binding (tested: not given) | B4 |
| no binding (tested: not given) | B5 |
| no binding (tested: not given) | B6 |

Molecular target: T2, human LAG-3 coupled to human Fc
Assay: as above
Experimental: as §1, §2

| binding result | Binder |
| --- | --- |
| no binding (tested: not given) | B1 |
| no binding (tested: not given) | B2 |
| no binding (tested: not given) | B3 |
| no binding (tested: not given) | B4 |
| no binding (tested: not given) | B5 |
| no binding (tested: not given) | B6 |

Molecular target: T8, human BTLA coupled to human Fc (human, UniProt Q7Z6A9 31-150, limits assumed)
T8 construct: ELISA coating antigen; not shown: human Fc
Assay: as above
Experimental: as §1, §2

T8 sequence (Q7Z6A9 31-150 limits assumed): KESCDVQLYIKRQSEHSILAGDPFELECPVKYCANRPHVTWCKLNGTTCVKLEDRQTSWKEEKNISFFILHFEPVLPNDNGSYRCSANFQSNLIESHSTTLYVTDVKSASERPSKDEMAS

| binding result | Binder |
| --- | --- |
| no binding (tested: not given) | B1 |
| no binding (tested: not given) | B2 |
| no binding (tested: not given) | B3 |
| no binding (tested: not given) | B4 |
| no binding (tested: not given) | B5 |
| no binding (tested: not given) | B6 |

Molecular target: T9, human CD28 coupled to human Fc (human, UniProt P10747 19-152, limits assumed)
T9 construct: ELISA coating antigen; not shown: human Fc
Assay: as above
Experimental: as §1, §2

| binding result | Binder |
| --- | --- |
| no binding (tested: not given) | B1 |
| no binding (tested: not given) | B2 |
| no binding (tested: not given) | B3 |
| no binding (tested: not given) | B4 |
| no binding (tested: not given) | B5 |
| no binding (tested: not given) | B6 |

Molecular target: T4, hCTLA4-Fc
Assay: ELISA; antigen coated 350 ng/well, Fab-containing supernatant, goat anti-human Fab-HRP, absorbance 450-670 nm

| binding result | Binder |
| --- | --- |
| no binding (tested: not given) | B1 |
| no binding (tested: not given) | B4 |
| no binding (tested: not given) | B5 |
